Literature values as cited in paper PMC9255719.
Where “and” joins values, the source holds several entries; their conditions need not be identical. Equal values may be shown once. Read-outs that look alike come from different tables or passages of the source.

Tests used:
[1] = target: Serum albumin, unlabelled ('No dye') (UniProt P02770); assay: not stated in this review (data reproduced from ref [155]); conditions: not stated (pH 6 and pH 7.4)
[2] = target: Albumin-Alexa 568 conjugate (4:1) (UniProt P02770); assay: as above; conditions: pH 6; not stated (pH 6 and pH 7.4)
[3] = target: Albumin-Texas Red-X conjugate (5:1) (UniProt P02770); assay: as above; conditions: pH 6; not stated (pH 6 and pH 7.4)
[4] = target: Albumin-fluorescein conjugate (6.4:1) (UniProt P02770); assay: as above; conditions: not stated (pH 6 and pH 7.4)
[5] = target: Albumin-Texas Red conjugate (1:1) (UniProt P02770); assay: as above; conditions: not stated (pH 6 and pH 7.4)
[6] = target: Albumin-Alexa 647 maleimide conjugate (1:1) (UniProt P02770); assay: as above; conditions: pH 6; not stated (pH 6 and pH 7.4)
[7] = target: Albumin-Texas Red-X conjugate (2:1) (UniProt P02770); assay: as above; conditions: pH 6; not stated (pH 6 and pH 7.4)
[8] = target: Albumin-Texas Red-X conjugate (1:1) (UniProt P02770); assay: as above; conditions: pH 6; not stated (pH 6 and pH 7.4)
[9] = target: Albumin-Texas Red-X conjugate (4:1) (UniProt P02770); assay: as above; conditions: pH 6; not stated (pH 6 and pH 7.4)
[10] = target: Albumin-CF-594 maleimide conjugate (dye:albumin 1:3) (UniProt P02770); assay: as above; conditions: pH 6; not stated (pH 6 and pH 7.4)
FcRn (Rattus norvegicus) [11] = target: FcRn (Rattus norvegicus) (UniProt P13599)
UniProt P13599, sequence (P13599 23-298): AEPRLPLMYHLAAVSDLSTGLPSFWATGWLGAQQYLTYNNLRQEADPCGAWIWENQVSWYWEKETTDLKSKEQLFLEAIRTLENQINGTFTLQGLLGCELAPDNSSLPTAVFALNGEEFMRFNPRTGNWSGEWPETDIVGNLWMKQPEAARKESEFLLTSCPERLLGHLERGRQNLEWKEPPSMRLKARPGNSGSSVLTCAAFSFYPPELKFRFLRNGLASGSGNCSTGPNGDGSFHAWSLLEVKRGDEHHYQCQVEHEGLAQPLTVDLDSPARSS

cubilin = cubilin (UniProt O60494)
UniProt O60494, sequence (O60494 36-3623): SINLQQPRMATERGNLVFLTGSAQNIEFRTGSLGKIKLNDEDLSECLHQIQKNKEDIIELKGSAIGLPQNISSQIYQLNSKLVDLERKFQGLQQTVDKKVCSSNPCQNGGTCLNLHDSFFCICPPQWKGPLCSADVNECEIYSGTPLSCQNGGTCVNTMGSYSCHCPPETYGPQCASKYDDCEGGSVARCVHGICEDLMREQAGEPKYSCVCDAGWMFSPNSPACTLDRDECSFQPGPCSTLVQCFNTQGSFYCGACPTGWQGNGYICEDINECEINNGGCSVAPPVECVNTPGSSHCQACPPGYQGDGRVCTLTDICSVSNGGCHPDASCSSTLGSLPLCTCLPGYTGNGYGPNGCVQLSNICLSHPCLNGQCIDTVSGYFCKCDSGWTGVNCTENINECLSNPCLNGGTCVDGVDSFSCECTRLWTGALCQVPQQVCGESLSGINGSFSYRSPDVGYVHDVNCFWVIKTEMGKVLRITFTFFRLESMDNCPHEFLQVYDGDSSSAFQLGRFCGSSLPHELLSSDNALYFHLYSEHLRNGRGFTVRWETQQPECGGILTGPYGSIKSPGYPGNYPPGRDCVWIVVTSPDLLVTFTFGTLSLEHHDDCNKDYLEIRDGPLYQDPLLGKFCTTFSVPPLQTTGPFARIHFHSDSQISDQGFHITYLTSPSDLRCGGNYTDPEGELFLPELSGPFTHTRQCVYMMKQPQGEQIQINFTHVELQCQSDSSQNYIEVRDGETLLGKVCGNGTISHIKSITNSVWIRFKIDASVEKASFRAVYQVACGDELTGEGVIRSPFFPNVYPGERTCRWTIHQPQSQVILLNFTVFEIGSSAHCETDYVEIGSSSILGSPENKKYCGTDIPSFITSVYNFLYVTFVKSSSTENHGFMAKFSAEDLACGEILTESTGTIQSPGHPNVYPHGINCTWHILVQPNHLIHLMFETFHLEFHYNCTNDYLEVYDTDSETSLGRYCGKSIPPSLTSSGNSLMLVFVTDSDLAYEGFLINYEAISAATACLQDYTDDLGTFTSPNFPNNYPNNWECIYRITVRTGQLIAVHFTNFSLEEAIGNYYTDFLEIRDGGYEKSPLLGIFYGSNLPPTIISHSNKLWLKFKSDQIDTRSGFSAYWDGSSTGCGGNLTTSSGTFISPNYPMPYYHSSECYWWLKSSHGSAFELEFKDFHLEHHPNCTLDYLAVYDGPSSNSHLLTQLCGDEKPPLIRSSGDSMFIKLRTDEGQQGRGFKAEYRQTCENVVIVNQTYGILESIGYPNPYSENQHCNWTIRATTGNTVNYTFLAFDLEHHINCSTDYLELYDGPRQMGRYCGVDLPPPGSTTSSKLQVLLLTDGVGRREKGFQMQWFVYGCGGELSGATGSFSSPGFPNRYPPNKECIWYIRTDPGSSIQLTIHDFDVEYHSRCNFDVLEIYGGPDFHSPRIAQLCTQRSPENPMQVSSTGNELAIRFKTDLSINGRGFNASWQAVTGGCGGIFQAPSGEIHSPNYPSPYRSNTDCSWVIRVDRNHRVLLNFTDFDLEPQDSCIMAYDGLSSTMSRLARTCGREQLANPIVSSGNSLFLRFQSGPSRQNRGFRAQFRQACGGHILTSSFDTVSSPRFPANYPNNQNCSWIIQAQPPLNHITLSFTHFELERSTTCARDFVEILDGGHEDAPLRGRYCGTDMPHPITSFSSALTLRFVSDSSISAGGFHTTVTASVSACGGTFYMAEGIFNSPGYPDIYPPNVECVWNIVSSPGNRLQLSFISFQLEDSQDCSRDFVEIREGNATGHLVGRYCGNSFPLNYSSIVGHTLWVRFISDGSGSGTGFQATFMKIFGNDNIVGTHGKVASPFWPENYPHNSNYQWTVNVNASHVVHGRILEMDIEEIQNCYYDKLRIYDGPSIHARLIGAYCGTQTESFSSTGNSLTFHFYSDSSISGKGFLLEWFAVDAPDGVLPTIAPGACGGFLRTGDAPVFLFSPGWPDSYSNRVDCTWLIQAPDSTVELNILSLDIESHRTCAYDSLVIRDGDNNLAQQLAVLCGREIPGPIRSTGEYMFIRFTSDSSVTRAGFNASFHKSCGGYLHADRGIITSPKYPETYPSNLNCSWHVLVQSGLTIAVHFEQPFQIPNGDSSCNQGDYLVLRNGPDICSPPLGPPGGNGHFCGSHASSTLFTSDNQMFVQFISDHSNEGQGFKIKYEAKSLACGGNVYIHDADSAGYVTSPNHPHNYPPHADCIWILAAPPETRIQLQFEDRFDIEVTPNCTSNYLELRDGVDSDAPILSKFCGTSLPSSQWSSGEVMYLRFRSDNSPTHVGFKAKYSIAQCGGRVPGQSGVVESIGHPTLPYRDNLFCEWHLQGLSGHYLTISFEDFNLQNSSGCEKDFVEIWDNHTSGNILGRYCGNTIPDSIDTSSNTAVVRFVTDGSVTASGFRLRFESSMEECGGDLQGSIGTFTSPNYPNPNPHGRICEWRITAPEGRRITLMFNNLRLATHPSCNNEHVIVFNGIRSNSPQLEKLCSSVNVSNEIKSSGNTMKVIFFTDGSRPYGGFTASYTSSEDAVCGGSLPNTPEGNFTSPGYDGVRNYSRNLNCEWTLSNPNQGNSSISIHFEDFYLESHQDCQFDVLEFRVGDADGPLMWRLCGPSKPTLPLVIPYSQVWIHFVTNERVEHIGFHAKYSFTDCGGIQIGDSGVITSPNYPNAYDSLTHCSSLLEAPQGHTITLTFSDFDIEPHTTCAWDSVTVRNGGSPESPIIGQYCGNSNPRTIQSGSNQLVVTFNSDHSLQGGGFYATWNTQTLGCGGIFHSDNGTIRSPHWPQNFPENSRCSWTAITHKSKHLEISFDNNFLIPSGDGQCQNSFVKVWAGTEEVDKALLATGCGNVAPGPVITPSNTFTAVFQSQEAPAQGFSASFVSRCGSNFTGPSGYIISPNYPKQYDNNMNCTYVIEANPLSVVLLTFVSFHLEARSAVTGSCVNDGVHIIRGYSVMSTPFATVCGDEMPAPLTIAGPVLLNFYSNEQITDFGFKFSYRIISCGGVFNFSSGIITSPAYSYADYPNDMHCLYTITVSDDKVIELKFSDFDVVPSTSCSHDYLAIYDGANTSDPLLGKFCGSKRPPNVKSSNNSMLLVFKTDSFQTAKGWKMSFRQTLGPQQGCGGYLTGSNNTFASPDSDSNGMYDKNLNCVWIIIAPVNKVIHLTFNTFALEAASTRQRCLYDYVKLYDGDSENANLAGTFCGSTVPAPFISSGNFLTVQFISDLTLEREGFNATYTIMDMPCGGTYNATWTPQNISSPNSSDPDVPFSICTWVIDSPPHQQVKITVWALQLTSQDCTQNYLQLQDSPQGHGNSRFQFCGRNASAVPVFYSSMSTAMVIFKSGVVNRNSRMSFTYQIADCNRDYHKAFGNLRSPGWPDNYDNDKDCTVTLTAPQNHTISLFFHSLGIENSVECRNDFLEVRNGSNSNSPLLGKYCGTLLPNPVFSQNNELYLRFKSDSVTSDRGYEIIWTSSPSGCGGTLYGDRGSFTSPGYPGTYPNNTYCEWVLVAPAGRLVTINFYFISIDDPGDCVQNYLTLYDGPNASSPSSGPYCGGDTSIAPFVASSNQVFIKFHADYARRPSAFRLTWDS

FcRn (Rattus norvegicus) [12] = target: FcRn (Rattus norvegicus) (UniProt P13599); remark: listed apart in the source
FcRn (Rattus norvegicus) [13] = target: FcRn (Rattus norvegicus) (UniProt P13599); remark: listed apart in the source
FcRn (Rattus norvegicus) [14] = target: FcRn (Rattus norvegicus) (UniProt P13599); remark: listed apart in the source
FcRn (Rattus norvegicus) [15] = target: FcRn (Rattus norvegicus) (UniProt P13599); remark: listed apart in the source
FcRn (Rattus norvegicus) [16] = target: FcRn (Rattus norvegicus) (UniProt P13599); remark: listed apart in the source
FcRn (Rattus norvegicus) [17] = target: FcRn (Rattus norvegicus) (UniProt P13599); remark: listed apart in the source
FcRn (Rattus norvegicus) [18] = target: FcRn (Rattus norvegicus) (UniProt P13599); remark: listed apart in the source
FcRn (Rattus norvegicus) [19] = target: FcRn (Rattus norvegicus) (UniProt P13599); remark: listed apart in the source
FcRn (Rattus norvegicus) [20] = target: FcRn (Rattus norvegicus) (UniProt P13599); remark: listed apart in the source
FcRn (Homo sapiens) [21] = target: FcRn (Homo sapiens) (UniProt P55899)
UniProt P55899, sequence (P55899 24-297): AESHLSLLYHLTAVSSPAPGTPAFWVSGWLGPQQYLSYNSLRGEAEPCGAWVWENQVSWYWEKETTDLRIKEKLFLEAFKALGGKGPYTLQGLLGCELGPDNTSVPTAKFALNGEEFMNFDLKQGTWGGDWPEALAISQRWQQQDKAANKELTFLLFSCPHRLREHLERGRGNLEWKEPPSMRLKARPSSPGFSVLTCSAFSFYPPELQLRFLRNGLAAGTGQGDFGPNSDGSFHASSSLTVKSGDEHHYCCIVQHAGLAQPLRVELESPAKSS

FcRn (Rattus norvegicus) [22] = target: FcRn (Rattus norvegicus) (UniProt P13599); remark: listed apart in the source
FcRn (Homo sapiens) [23] = target: FcRn (Homo sapiens) (UniProt P55899); remark: listed apart in the source
FcRn (Rattus norvegicus) [24] = target: FcRn (Rattus norvegicus) (UniProt P13599); remark: listed apart in the source
FcRn (Rattus norvegicus) [25] = target: FcRn (Rattus norvegicus) (UniProt P13599); remark: listed apart in the source
FcRn (Rattus norvegicus) [26] = target: FcRn (Rattus norvegicus) (UniProt P13599); remark: listed apart in the source

Neonatal Fc receptor (FcRn), rat (rFcRn)
Kd ([1]; pH 6): 11.6 µM
Kd ([1]; pH 7.4): > 100 µM
Kd [2]: 17 µM
Kd [3]: > 100 µM
Kd ([4]; pH 6): 69 µM
Kd ([4]; pH 7.4): 1 µM
Kd ([5]; pH 6): 6 µM
Kd ([5]; pH 7.4): 11 µM
Kd [6]: 11 µM
Kd [7]: 10 µM
Kd [8]: 5.4 µM
Kd [9]: > 40 µM
Kd [10]: 1.5 µM

albumin (from UniProt P02768)
Kd (FcRn (Rattus norvegicus) [11]): > 100 µM
Kd (cubilin): 0.63 µM

albumin (from UniProt P02769)
Kd (FcRn (Rattus norvegicus) [12]): > 100 µM

albumin (from UniProt P02770)
Kd (FcRn (Rattus norvegicus) [13]): 11.6 µM
Kd (FcRn (Rattus norvegicus) [14]): > 100 µM
Kd (FcRn (Rattus norvegicus) [15]): 11 µM and 6 µM
Kd (FcRn (Rattus norvegicus) [16]): 1.5 µM
Kd (FcRn (Rattus norvegicus) [17]): 5.4 µM
Kd (FcRn (Rattus norvegicus) [18]): > 40 µM
Kd (FcRn (Rattus norvegicus) [19]): 17 µM
Kd (FcRn (Rattus norvegicus) [20]): 10 µM
Kd (FcRn (Homo sapiens) [21]): 1.1 µM

albumin (from UniProt P07724)
Kd (FcRn (Rattus norvegicus) [22]): > 100 µM

albumin (from UniProt P08835)
Kd (FcRn (Homo sapiens) [23]): > 50 µM
Kd (FcRn (Rattus norvegicus) [24]): > 100 µM

albumin (from UniProt P14639)
Kd (FcRn (Rattus norvegicus) [25]): > 100 µM

albumin (from UniProt P49065)
Kd (FcRn (Rattus norvegicus) [26]): 11.8 µM
